The values that follow come from article PMC6332122, “Identification of RNA Oligonucleotides Binding to Several Proteins from Potential G-Quadruplex Forming Regions in Transcribed Pre-mRNA”.

For series [1], the target named is alpha-Thrombin (human, UniProt P00734;P00734 328-363;364-622). The experiment in a line: SPR; SPR: PBS (137 mM NaCl, 2.7 mM KCl, 8 mM Na2HPO4, 2 mM KH2PO4) pH 7.4, 25 °C, protein on CM5; EMSA: 50 mM Tris-HCl, 100 mM KCl, pH 7.5, room temperature, 1 uM RN.
The target in series [2] is T1, VEGF165 (UniProt P15692-4 27-191). The experiment in a line: SPR; SPR: PBS (137 mM NaCl, 2.7 mM KCl, 8 mM Na2HPO4, 2 mM KH2PO4) pH 7.4, 25 °C, protein on CM5; EMSA: 50 mM Tris-HCl, 100 mM KCl, pH 7.5, room temperature, 1 uM RNA, 15% PAGE in TBE. The note with it: protein: commercial, parallel G4. (SPR reads the build-up and loss of mass on a sensor chip optically.)
Series [3] addresses PDGF-AA (UniProt P04085 87-211). The series is described as above. The conditions noted are these: protein: commercial, chain copies: 2, parallel G4.
Series [4] has as its target PDGF-BB (UniProt P01127 82-190). Described as above. The conditions noted are these: protein: commercial, chain copies: 2, parallel G4.
The target in series [5] is T1, VEGF165. The series can be described thus: SPR; up to 1000 nM RNA; SPR: PBS (137 mM NaCl, 2.7 mM KCl, 8 mM Na2HPO4, 2 mM KH2PO4) pH 7.4, 25 °C, protein on CM5; EMSA: 50 mM Tris-HCl, 100 mM KCl, pH 7.5, room temperature, 1 uM RNA, 15% PAGE in TBE. The note with it: protein: commercial.
[6] abbreviates: label: 5' fluorescein for EMSA, none for SPR.

T1 sequence (P15692 other isoform, or with tags, fused parts or gaps): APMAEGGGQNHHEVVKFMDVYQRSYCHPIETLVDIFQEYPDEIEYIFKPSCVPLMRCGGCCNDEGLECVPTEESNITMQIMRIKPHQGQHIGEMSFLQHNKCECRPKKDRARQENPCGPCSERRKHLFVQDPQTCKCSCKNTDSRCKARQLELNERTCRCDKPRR
Chain of PDGF-BB (P01127 82-190): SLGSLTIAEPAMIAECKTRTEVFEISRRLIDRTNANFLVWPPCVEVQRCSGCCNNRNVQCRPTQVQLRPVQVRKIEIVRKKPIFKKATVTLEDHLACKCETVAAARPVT

A word on the Kd: it is the free concentration of one partner at which half of the binding sites on the other are occupied at equilibrium, for simple one-to-one binding. Lower therefore signals tighter binding. With GGGGGCGGGAGCCAGAGACCAGUGGGCAGGG (structured_RNA) [VEGFA intronic G4_1], the binding result in series [1] is “no binding”. Besides, the equilibrium dissociation constant (Kd) turned out to be 140 nM in series [2] (setting [6]), 20 nM in series [3] (setting [6]) and 40 nM in series [4] (setting [6]).
For the molecule GUUUGCGGGAGCCAGAGACCAGUGGGCAGGG (structured_RNA) [VEGFA intronic G4_1 mutant], in series [5] (label: 5' fluorescein for EMSA, none for SPR, unexpected parallel G4 by CD), the binding result is listed as “no binding”.
GGGGUGCGGGGAGCGGGGAAGGG (structured_RNA) [PDGFA intronic G4_2]: the results for the Kd in series [2], in series [3] and in series [4] were 200 nM, 30 nM and 30 nM, respectively.
Regarding GGAUUAGUGUGAGGAGGA (ssRNA) [VEGFA 5' UTR G4 mutant], the binding result in series [5] (no parallel G4 by CD) was “no binding”.
For GGGUUUGGUUGGGCACAGGGCACGGG (structured_RNA) [PDGFB intronic G4_3], the Kd was 440 nM in series [2], 40 nM in series [3] and 60 nM in series [4].
With GGGCGCGGGGUUUGGGGUGGG (structured_RNA) [PDGFB intronic G4_1], the Kd in series [2] was determined as 130 nM; in series [3] it was 30 nM; in series [4], 40 nM.
GGGGAAGGGGAGCUGGGGCGCAGCGGG (structured_RNA) [PDGFA intronic G4_1]: the Kd stood at 490 nM in series [2], 30 nM in series [3] and 30 nM in series [4].
Turning to GGGCACUCGGGUAGGGGGAGGACUAGGG (structured_RNA) [PDGFB intronic G4_2], the Kd is 150 nM in series [2], 20 nM in series [3] and 30 nM in series [4].
For UUUUUCAGGGCGCAGGAGGGAGAUUUUU (ssRNA) [VEGFA intronic G4_2 mutant], in series [5] (no parallel G4 by CD), the binding result is “no binding”.
GGGGGCAGGGCGCAGGAGGGAGAGGGGG (structured_RNA) [VEGFA intronic G4_2]: in series [1], the binding result is on record as “no binding”. Besides, the Kd in series [2] came to 31 nM; in series [3], 20 nM; in series [4], 30 nM.
The corresponding values for GGAGGAGGGGGAGGAGGA (structured_RNA) [VEGFA 5' UTR G4] are “no binding”, 300 nM, 60 nM and 110 nM.
